Data from US20240116985A1 (published 2024).
Each block holds one binder with its values, some of them ahead of it. Starred links: 1 amine or outer side, 2 acyl side, 3 side chain; linkers in the order of their positions; H or OH if unused. Positions of bridges follow the written chain, without caps; N, C: chain ends. Non-standard residues stand in square brackets, D forms with d. Primed or numbered codes have the meaning given here. No end group written: not given here. *: point of attachment. PyrS2(3) = (S)-3-amino-1-((pent-4-en-1-yloxy)carbonyl)pyrrolidine-3-carboxylic acid, stapling residue, C=CCCCOC(=O)N1CC[C@@](N[*:1])(C(=O)[*:2])C1; PyrS2″ = (S)-3-amino-1-((pent-4-en-1-yloxy)carbonyl)pyrrolidine-3-carboxylic acid (stapling residue), C=CCCCOC(=O)N1CC[C@@](N[*:1])(C(=O)[*:2])C1; B5(18) = 2,2-bis(4-pentenyl)glycine (2-amino-2-(pent-4-en-1-yl)hept-6-enoic acid), stitching residue, C=CCCCC(CCCC=C)(N[*:1])C(=O)[*:2]; B5(4) = 2,2-bis(4-pentenyl)glycine = 2-amino-2-(pent-4-en-1-yl)hept-6-enoic acid (stitching residue), C=CCCCC(CCCC=C)(N[*:1])C(=O)[*:2]; TfeGA = (S)-2-amino-3-((carboxymethyl)(2,2,2-trifluoroethyl)amino)propanoic acid, O=C([C@H](CN(CC(=O)[*:3])CC(F)(F)F)N[*:1])[*:2]; PyrS4 = (S)-3-amino-1-((hept-6-en-1-yloxy)carbonyl)pyrrolidine-3-carboxylic acid, C=CCCCCCOC(=O)N1CC[C@@](N[*:1])(C(=O)[*:2])C1; PyrS2 = (S)-3-amino-1-((pent-4-en-1-yloxy)carbonyl)pyrrolidine-3-carboxylic acid, C=CCCCOC(=O)N1CC[C@@](N[*:1])(C(=O)[*:2])C1; TriAzDap = Dap whose side chain is a 1H-1,2,3-triazol-1-yl bearing the bracketed 4-substituent; B5(3) = 2,2-bis(4-pentenyl)glycine (stitching residue), C=CCCCC(CCCC=C)(N[*:1])C(=O)[*:2]; B5 = 2-amino-2-(pent-4-en-1-yl)hept-6-enoic acid, C=CCCCC(CCCC=C)(N[*:1])C(=O)[*:2]; B3 = 2-allyl-2-aminopent-4-enoic acid, C=CCC(CC=C)(N[*:1])C(=O)[*:2]; Phe(3-COOH) = N[C@@H](Cc1cccc(C(=O)O)c1)C(=O)O; Phe(2-CF3) = N[C@@H](Cc1ccccc1C(F)(F)F)C(=O)O; Phe(2-Cl) = N[C@@H](Cc1ccccc1Cl)C(=O)O; Bta = N[C@@H](Cc1csc2ccccc12)C(=O)O; αAllylPro = C=CC[C@@]1(C(=O)O)CCCN1; tBuAla = CC(C)(C)C[C@H](N)C(=O)O; 3Thi = N[C@@H](Cc1ccsc1)C(=O)O; MorphCH2 = C1CN(C*)CCO1; Ms = CS(=O)(=O)*

Key:
Assay in all cases: cell-based or functional assay
[1] = target: T1, beta-catenin (in DLD1 TCF/LEF luciferase reporter cells) (UniProt P35222 1-781)
T1 sequence (looked up): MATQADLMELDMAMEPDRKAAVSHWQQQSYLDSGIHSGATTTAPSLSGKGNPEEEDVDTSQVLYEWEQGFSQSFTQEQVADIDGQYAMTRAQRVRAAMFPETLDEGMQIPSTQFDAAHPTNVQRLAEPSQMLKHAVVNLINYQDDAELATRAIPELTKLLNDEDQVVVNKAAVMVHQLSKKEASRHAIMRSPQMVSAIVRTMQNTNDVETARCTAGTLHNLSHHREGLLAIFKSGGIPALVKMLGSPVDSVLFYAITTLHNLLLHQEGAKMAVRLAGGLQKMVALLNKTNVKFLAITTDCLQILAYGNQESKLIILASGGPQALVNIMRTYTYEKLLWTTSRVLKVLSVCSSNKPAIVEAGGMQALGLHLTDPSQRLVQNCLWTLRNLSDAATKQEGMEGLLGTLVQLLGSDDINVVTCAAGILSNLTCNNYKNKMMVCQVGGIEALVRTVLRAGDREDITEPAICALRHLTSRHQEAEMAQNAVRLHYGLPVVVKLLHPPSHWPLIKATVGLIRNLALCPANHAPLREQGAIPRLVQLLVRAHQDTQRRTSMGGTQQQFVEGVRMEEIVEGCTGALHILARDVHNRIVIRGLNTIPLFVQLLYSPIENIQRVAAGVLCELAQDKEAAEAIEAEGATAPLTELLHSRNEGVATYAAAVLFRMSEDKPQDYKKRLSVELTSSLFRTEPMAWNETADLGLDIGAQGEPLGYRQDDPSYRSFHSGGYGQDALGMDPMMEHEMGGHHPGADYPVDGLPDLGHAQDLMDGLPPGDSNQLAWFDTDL

[2] = target: T2, B-cat-Halo (beta-catenin HaloTag NanoBRET construct expressed in HEK293 cells) (UniProt P35222 1-781)
T2 sequence (looked up): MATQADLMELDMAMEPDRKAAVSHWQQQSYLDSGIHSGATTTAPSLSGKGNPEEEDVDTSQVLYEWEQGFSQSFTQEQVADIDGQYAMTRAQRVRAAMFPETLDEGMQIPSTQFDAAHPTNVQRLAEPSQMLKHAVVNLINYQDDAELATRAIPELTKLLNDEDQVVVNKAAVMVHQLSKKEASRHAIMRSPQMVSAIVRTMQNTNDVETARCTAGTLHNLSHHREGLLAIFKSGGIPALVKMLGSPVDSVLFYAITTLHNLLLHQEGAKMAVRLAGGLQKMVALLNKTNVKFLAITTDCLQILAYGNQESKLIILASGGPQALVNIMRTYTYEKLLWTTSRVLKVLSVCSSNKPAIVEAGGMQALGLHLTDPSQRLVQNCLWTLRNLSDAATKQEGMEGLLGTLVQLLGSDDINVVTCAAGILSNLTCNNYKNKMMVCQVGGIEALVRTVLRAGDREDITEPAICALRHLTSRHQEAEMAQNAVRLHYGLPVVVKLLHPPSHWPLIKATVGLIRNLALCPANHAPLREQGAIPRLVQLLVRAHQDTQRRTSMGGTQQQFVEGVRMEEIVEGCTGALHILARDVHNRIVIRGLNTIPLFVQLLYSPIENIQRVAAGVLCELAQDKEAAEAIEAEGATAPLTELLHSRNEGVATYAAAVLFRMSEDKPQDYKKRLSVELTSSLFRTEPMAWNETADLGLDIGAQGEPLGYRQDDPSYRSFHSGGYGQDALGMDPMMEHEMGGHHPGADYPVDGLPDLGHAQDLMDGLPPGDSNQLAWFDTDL

[3] = target: T3, B-cat-Halo (beta-catenin HaloTag fusion expressed in HEK293 cells) (UniProt P35222 1-781)
T3 sequence (looked up): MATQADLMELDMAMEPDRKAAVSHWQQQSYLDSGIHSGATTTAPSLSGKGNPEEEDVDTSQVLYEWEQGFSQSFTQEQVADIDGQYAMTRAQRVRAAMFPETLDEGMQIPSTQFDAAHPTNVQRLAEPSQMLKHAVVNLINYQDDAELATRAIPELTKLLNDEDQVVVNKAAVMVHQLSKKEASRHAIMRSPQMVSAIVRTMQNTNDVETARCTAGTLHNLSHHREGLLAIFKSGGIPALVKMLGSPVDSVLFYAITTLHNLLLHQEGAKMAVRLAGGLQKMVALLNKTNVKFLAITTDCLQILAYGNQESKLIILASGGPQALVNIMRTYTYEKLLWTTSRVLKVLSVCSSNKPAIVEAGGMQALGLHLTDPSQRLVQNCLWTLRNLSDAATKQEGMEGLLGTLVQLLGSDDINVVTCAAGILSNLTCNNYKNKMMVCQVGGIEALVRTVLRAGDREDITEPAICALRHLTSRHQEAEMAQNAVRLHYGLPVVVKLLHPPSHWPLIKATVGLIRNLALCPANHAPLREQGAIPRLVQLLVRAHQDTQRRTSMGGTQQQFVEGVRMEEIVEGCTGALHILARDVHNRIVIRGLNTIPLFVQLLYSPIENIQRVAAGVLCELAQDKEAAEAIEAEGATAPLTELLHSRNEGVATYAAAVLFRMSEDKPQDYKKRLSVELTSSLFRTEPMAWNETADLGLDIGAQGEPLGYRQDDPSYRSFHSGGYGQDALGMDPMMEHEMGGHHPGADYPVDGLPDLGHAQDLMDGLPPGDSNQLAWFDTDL

[4] = target: T4, B-cat-Halo (beta-catenin HaloTag NanoBRET construct expressed in HEK293 cells) (UniProt P35222 1-781); remark: listed apart in the source
T4 sequence (looked up): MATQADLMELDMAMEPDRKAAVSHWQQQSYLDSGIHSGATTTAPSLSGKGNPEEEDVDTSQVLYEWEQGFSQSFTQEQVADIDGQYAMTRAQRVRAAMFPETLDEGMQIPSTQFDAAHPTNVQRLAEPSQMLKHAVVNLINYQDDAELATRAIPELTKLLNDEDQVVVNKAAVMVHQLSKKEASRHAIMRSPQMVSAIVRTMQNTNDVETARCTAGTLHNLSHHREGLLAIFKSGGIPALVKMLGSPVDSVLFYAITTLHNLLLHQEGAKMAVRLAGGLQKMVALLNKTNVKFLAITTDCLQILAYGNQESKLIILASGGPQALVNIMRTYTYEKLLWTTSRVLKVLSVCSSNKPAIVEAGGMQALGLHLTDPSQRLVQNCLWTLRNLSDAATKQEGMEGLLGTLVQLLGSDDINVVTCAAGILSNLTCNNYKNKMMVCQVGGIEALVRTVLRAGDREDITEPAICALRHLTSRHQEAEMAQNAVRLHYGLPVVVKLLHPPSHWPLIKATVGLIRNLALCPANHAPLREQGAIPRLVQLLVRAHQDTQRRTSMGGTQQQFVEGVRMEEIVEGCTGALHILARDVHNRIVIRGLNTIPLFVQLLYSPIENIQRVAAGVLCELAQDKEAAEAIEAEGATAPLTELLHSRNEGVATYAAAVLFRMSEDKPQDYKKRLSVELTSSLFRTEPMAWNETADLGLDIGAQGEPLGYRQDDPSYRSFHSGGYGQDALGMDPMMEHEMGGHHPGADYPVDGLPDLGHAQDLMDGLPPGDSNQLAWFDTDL

Binder: [αAllylPro]D[tBuAla][B5]D[Phe(3-COOH)]AAFL[PyrS2][Phe(2-CF3)][Bta]S-NH2 (staple 1-4, 4-11) [I-1336]
DLD1 4% Abs IC50 [1]: 0.7 µM

Binder: Ac-[αAllylPro]D[tBuAla][B5(18)]D[TfeGA]AAF[TriAzDap](CH2Ppz)[PyrS2(3)][3Thi][Bta]Q-NH2 (staple 1-4, 4-11; not fully specified) [I-1863]
NanoBRET Abs IC50 [2]: 37.4 µM

Binder: Ac-[αAllylPro]D[tBuAla][B3]DDAAFL[PyrS4][3Thi][Bta]Q-NH2 (staple 1-4, 4-11; also: later eluting HPLC peak (staple isomer composition)) [I-2159]
NanoBRET Abs IC50 [4]: > 20 µM

Further lines, results first:

NanoBRET Abs IC50 [2]: > 20 µM
Binder: Ac-[αAllylPro]D[tBuAla][B5(18)]D[TfeGA]AAF[TriAzDap](MorphCH2)[PyrS2(3)][3Thi][Bta]Q-NH2 (staple 1-4, 4-11; not fully specified) [I-1865]

DLD1 4% Abs IC50 [1]: 3.4 µM
Binder: [αAllylPro]D[tBuAla][B5(4)]D[Phe(3-COOH)]AAFF[PyrS2″][Phe(2-Cl)][Bta]Q-NH2 (staple 1-4, 4-11) [I-1338]

NanoBRET Abs IC50 [3]: > 20 µM
Binder: Ms-[αAllylPro]D[tBuAla][B5(3)]D[TfeGA]AAFN[PyrS2″][3Thi][Bta]Q-NH2 (staple 1-4, 4-11) [MeSO2-PL3-Asp-Npg-B5-Asp-TfeGA-Ala-Ala-Phe-Asn-PyrS2-3Thi-BztA-Gln-NH2]

NanoBRET Abs IC50 [3]: 23.4 µM
Binder: Ac-[αAllylPro]N[tBuAla][B5(3)]DDAAFL[PyrS2″][3Thi][Bta]Q-NH2 (staple 1-4, 4-11) [Ac-PL3-Asn-Npg-B5-Asp-Asp-Ala-Ala-Phe-Leu-PyrS2-3Thi-BztA-Gln-NH2]
